Changes are numbered by the printed parent chain. Numbers in names are those of the source.
Key:
[1] = test system: T1, O=C(Cc1cccs1)N[C@@H]1C(=O)N2C(C(=O)O)=C(/C=C/c3ccc([N+](=O)[O-])cc3[N+](=O)[O-])CS[C@H]12; test: purified protein; type: biochemical, Escherichia coli; conditions: 50 mM Tris-HCl pH 8, room temperature
T1 construct: mature OmpF; His-tag and thrombin site deleted; beta-barrel trimer

[2] = molecular target: the molecule itself; test: SDS-PAGE of the refolded protein; unfolded OmpF (20 mg/mL) refolded with 1% n-dodecyl-β-D-glucopyranoside and 1% n-dodecyl-β-D-maltopyranoside at 37 °C for 1-2 days; folding and oligomerization determined by 15% SDS-PAGE
[3] = OmpF1, 1.2 equiv. ZnCl2, 10 µM protein
[4] = OmpF2, 1.2 equiv. ZnCl2, 10 µM protein
[5] = OmpF1Y, 1.2 equiv. ZnCl2, 10 µM protein

## OmpF (outer membrane protein F; OmpF1, OmpF1Y, OmpF2 and evolved variants) (Escherichia coli K-12; R104H/R154H/Y124H)
[1]; [3]
  Km: 1400 ± 600 µM
  kcat: 0.017 ± 0.004 s⁻¹

## OmpF (outer membrane protein F; OmpF1, OmpF1Y, OmpF2 and evolved variants) (Escherichia coli K-12; L105H/R154H/Y124H)
[1]; [4]
  Km: 1700 ± 600 µM
  kcat: 0.025 ± 0.005 s⁻¹

## OmpF (outer membrane protein F; OmpF1, OmpF1Y, OmpF2 and evolved variants) (Escherichia coli K-12; R104H/R154H)
[1]; [5]
  Km: 2000 ± 1000 µM
  kcat: 0.02 ± 0.01 s⁻¹

B1: OmpF1 (OmpF R82H/Y102H/R132H) (natural protein, UniProt P02931 23-362, looked up)
chain: AEIYNKDGNKVDLYGKAVGLHYFSKGNGENSYGGNGDMTYARLGFKGETQINSDLTGYGQWEYNFQGNNSEGADAQTGNKTHLAFAGLKYADVGSFDYGRNHGVVYDALGYTDMLPEFGGDTAYSDDFFVGHVGGVATYRNSNFFGLVDGLNFAVQYLGKNERDTARRSNGDGVGGSISYEYEGFGIVGAYGAADRTNLQEAQPLGNGKKAEQWATGLKYDANNIYLAANYGETRNATPITNKFTNTSGFANKTQDVLLVAQYQFDFGLRPSIAYTKSKAKDVEGIGDVDLVNYFEVGATYYFNKNMSTYVDYIINQIDSDNKLGVGSDDTVAVGIVYQF
notes: outer membrane protein F (OmpF), UniProt P02931, expressed without the native 22-residue signal peptide; His-tag and thrombin site were deleted from the plasmid; Crystallised with 1.2 equiv. of Zn ion per protomer; also called R132H/Y102H/R82H; source: E. coli BL21(DE3)
[2]
  stoichiometry N: 3

B2: OmpF2 (OmpF L83H/Y102H/R132H) (natural protein, UniProt P02931 23-362, looked up)
chain: B1 chain with H82R, L83H
notes: outer membrane protein F (OmpF), UniProt P02931, expressed without the native 22-residue signal peptide; His-tag and thrombin site were deleted from the plasmid; Crystallised with 1.2 equiv. of Zn ion per protomer; also called R132H/Y102H/L83H; source: E. coli BL21(DE3)
[2]
  stoichiometry N: 3
